# Reference: the nanobody polyreactivity screen of Harvey et al. (2022)
# Test: yeast display, Sf9 membrane polyspecificity reagent, FACS + sequencing; frameworks hold sequencing errors
# Outline: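 Sorting gates, low and high (top ~1%), were placed on anti-HA fluorescence to track expression and on streptavidin fluorescence to track reagent binding. A clone's polyreactivity label is taken from the gate it came out of. The reagent was 10% biotinylated, detergent-solubilized Sf9 membrane, applied for 1 hour at 4 °C to galactose-induced yeast display cells.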
row,Sequence,polyreactivity (PSR sort gate)
1,QVQLVESGGGLVQAGGSLRLSCAASGNTFTWYTMGWYRQAPGKERELVAVMTSDGSTYYADSVKGRFTISRDNAKNTVSFQMNSLKPEDTAVYYCNRGVFDTFYYYPQVGFGYWGQGTQVTVSS,low polyreactivity
2,QVQLVESGGGLVQAGGSLRLSCAASGNTFTYYAMGWYRQAPGKERELVAAISSGGRTYYADSVKGRFTISRDNAKNTVYLQMNSLKPEDTAVYYCAARIKYGYPGPRYYYWGQGTQVTVSS,high polyreactivity
3,QVQLVESGGGLVQAGGSLRLSCAASGNTFVTYAMGWYRQAPGKVRELVATISSSGGSTYYADSVKGRFTISRDNAKNTVYLQMNSLKPEDTAVYYCAKQAWAYALYTNFYSGDYGYWGQGTQVTVSS,low polyreactivity
4,QVQLVESGGGLVQAGGSLRLSCAASGNTFVYYAMGWYRQAPGKERELVAGISRRSGSTYYADSVKGRFTISRDNAKNTVYLQMNSLKPEDTAVYYCAIGRTYLDAEDYWGQGSQVTVSS,low polyreactivity
5,QVQLVESGGGLVQAGGSLRLSCAASGNTFWFYRMGWYRQAPGKERELVAAITSGGSTDYADSVKGRFTISRDNAKNTVYLQMNSLKPEDTAVYYCAAEPVAYYGSSYGYWGQGTQVTVSS,low polyreactivity
6,QVQLVESGGGLVQAGGSLRLSCAASGNTFWGNAMGWYRQAPGKERELVATISASAGSTYYADSVKGRFTISRDNAKNTVYLQMNSLKPDDTAVYYCAKTALRYLKHGRTKGDYWGQGTQVTLSS,low polyreactivity
7,QVQLVESGGGLVQAGGSLRLSCAASGNTFYGYAMGWYRQAPGKERELVAAITKTGGSTYYADSVKGRFTISRDNAKNTVYLQMNSLKPEDTAVYYCNAARETRPRDYYWGQGTQVTVSS,low polyreactivity
8,QVQLVESGGGLVQAGGSLRLSCAASGNTFYKNTMGWYRQAPWKERELVAAISQRGTRTYYADSVKGRFTISRDNAKNTVYLQMNSLKPEDTAVYYCATDLSQVGFDYWGQGTQVTVSS,high polyreactivity
9,QVQLVESGGGLVQAGGSLRLSCAASGNTFYRYAMGRYRQAPGKEREFVAGITSRGGSTSYADSVKGRFTISRDSAKNTVYLQMNILKPEDTAVYYCAARYSKVHFAYDYWGQGTQVTVSS,high polyreactivity
10,QVQLVESGGGLVQAGGSLRLSCAASGNTFYSNAMGWYRQAPGKERDLVAAISASGTTTYYADSVKGRFTISRDNAKNTVYLQMNSLKPEDTAVYYCAAVAPTRATRREDSWGQGTQVTVSS,high polyreactivity
11,QVQLVESGGGLVQAGGSLRLSCAASGNTFYTYGMGWYRQAPGKERELVAAINHNGGSTYYADSVKARFTISRDNAKNTVYLQMNSLKPEDTAVYYCNADYSTYVERGSSVYYWYDYWGQGTQVTVSS,low polyreactivity
12,QVQLVESGGGLVQAGGSLRLSCAASGNTFYVYTMGWYRQAPGKERELVAAISSTGDRTYYADSVKGRFTISRDYAKNTVYLQMNSLKPEETAVYYCAARLYRGYRGYYYWGQGTQVTVSS,high polyreactivity
13,QVQLVESGGGLVQAGGSLRLSCAASGNTFYYNAMGWYRQAPGKEREFVAAITSSGGGTYYADSVKGRFTISRDNAKNTVYLQMNSLKPEDTAVYYCAADATYRKQVIFYYWGQGTQVTVSS,low polyreactivity
14,QVQLVESGGGLVQAGGSLRLSCAASGNTIIDYAMGWYRQPPGKERELVASITSGGGSTYYADSVKGRFTISRDNAKNTVYLQMNSLKPVDTAVYYCAAERYYSEAIFRSYDYWGQGTQVTVSS,low polyreactivity
15,QVQLVESGGGLVQAGGSLRLSCAASGNTLASYAMGWYRQAPGKEREFVAAITNRSGSTYYADSVKGRFTISRDNAKNTVYLQMNSLKPEDTAVYYCAARYGRRSGQMGYWGQGTQVTVSS,high polyreactivity
16,QVQLVESGGGLVQAGGSLRLSCAASGNTLGYNAAMGWYRQAPGKERELVAAITENGGSTYYADSVKGRFTISRDNAKNTVYLQMNSLKPEDTAVYYCATAPYYYRGAYGFEYWGQGTQVTVSS,low polyreactivity
17,QVQLVESGGGLVQAGGSLRLSCAASGNTLIQYAMGWIIQAPGKEREVLAGISGTDDSTYYADSVKGRFTISRDNAKNTVYFQMTSLKPEDRSVYYCATREWYDKYPNIYVSFDYWGQGTQVTVSS,low polyreactivity
18,QVQLVESGGGLVQAGGSLRLSCAASGNTLQVYAMGGYRPAPGKERELVARLTGGGRTSYADSVKGRFTISRDNAKTTVYLQMHSLKPEDTAVYYCATVYYGHIVLYDYWGQGTQVTVSA,low polyreactivity
19,QVQLVESGGGLVQAGGSLRLSCAASGNTQGYNAAMGWYRQAPGKERELVAAINSGGGSTYYADSVKGRFTISRDNAKNTVYLQMNSLKPEDTAVYYCAARYRSRYDYYYDRDYWGQGTQVTVSS,low polyreactivity
20,QVQLVESGGGLVQAGGSLRLSCAASGNTSGHNAMGWYRQAPGKERELVADIRTGDSTNYADSVKGRFTISRDNAKNTVYLQMNSLKPEDTAVYYCAADSAYDVTSYGYWGQGTQVTVSS,low polyreactivity
21,QVQLVESGGGLVQAGGSLRLSCAASGPIFHPYAMGWYRHAPGKERELVAAITNSGGITYADSVKGRFTISRDNAKNTVYLQMNSLKPEDTAVYYCNTATNRFHYKYRKPYDYWGQGTQVTVSS,low polyreactivity
22,QVQLVESGGGLVQAGGSLRLSCAASGPIFKRNAMGWYRQAPGKERELVAAISGSGGRTYYADSVKGRFTISRDNAKYTVYLQMNSLKREDTAVYYCNAGGSYYARGMDYWGQGTQVTVSS,high polyreactivity

row,Sequence,polyreactivity (PSR sort gate)
1,QVQLVESGGGLVQAGGSLRLSCAASGPIFVENAMGRNRPAPGKERELVAAISGGGSTDYADSVKGRFTISRDNAKNTVYLEMNSLKPVYTAVYFCNARQVFTTAGGEMDYWGQGTQVTVSS,low polyreactivity
2,QVQLVESGGGLVQAGGSLRLSCAASGPIIDFYAMGWSRKAPGKERELVAAISWRGGSTYYADSVKGRFTISRDNAKNSVYLQMNSLKPEDTAVYYCANRFGPRYYWGQGTQVTVSS,low polyreactivity
3,QVQLVESGGGLVQAGGSLRLSCAASGPISAIYDMGWYRQAPGKEREVVAAISGGTSTYYADSVKGRFTISRDNAKNTVYLQMNSLKPEDTAVYYCNAEASSYHGVEDEYDYWGQGTQVTVSS,low polyreactivity
4,QVQLVESGGGLVQAGGSLRLSCAASGPISRYNTMGWYRQAPGKERELVAAISYRGGSTYYADSVKGRFTISRDNAKNTVYLQMNSLKPEDTAVYYCNKVRSSVRSGGYGYWGQGTQVTVSS,high polyreactivity
5,QVQLVESGGGLVQAGGSLRLSCAASGPTFTPYAMGWYRPAPGKERELVAAISGGGSTNYADSVKGRFTISRDNAKNTVFLQMNSLKPEDTAVYYCAKRVYRGRRMDYWGQGTQVTVSS,high polyreactivity
6,QVQLVESGGGLVQAGGSLRLSCAASGRFFSWNAMGWYRPAPGTERELVAAISSSVGSTYYADSVKGRFTISRDNAQNTVYFQMNSRKPEDTAVYYCNAVPIGQWAYDYWGQGTQVTVSS,high polyreactivity
7,QVQLVESGGGLVQAGGSLRLSCAASGRGYYAMGWYRQAPGKERELVAAISRGGNTKYADSVKGRFTISRDNAKNTVYLQMNSLKPEDTAVYYCYTDWADYYYYTDYDYWGQGTQVTVSS,high polyreactivity
8,QVQLVESGGGLVQAGGSLRLSCAASGRICGYNSMGWYRQAPGKERELVAAISSSGGSTYYADSVKGRFTISRDYATNTVYVQMNSLKREATAVYYCAARIGYRSWAWDAYEYCGQGTQVTVSS,low polyreactivity
9,QVQLVESGGGLVQAGGSLRLSCAASGRIFADNGMGWYRQAPGKERELVASITSSGGDTYYADSVKGRFTISRDNAKNTVYLQMNSLKPEDTAVYYCATECSWLFYGVWVVTFGDDYWGQGTQVTVSS,low polyreactivity
10,QVQLVESGGGLVQAGGSLRLSCAASGRIFADNGMGWYRQAPGKERELVASITSSGGDTYYADSVKGRFTISRDNAKNTVYLQMNSLKPEDTAVYYCATEFSWLFYGVWVVTFGDDYWGQGTQVTVSS,low polyreactivity
11,QVQLVESGGGLVQAGGSLRLSCAASGRIFADYAMGWYRQAPGKERELVATITSGDRTYYADSVKGRFTTSRDNAKNTVYLQMNSLKPEDTAVYYCAAYKPWYVGLYPWYDYWGQGTQVTVSS,low polyreactivity
12,QVQLVESGGGLVQAGGSLRLSCAASGRIFAFNAMGWYRQAPGKERELVADITSSGVNTYYADSVKGRFTISRDNAKNTVYLQMNSLKPEDTAVYYCAARSYLRWWVGMEYWGQGTQVTVSS,low polyreactivity
13,QVQLVESGGGLVQAGGSLRLSCAASGRIFAFYAMGWYRPAPGKEREFVAAITYSGGNTNYADSVKGRFTISRDNAKNTVYIEMNSLKPEDTPVYYCAADLVYGVYYQEDYWGQGTQVTVSS,low polyreactivity
14,QVQLVESGGGLVQAGGSLRLSCAASGRIFAFYAMGWYRQAPGKEREFVAAISWSGGSTYYADSVKGRFTISRDNAKNTVYLQMNSLKPEDTAVYYCAARSRVRHSGMNYWGQGTQVTVSS,high polyreactivity
15,QVQLVESGGGLVQAGGSLRLSCAASGRIFAFYAMGWYRQAPGKERELVAAISWSGGSTYFADSVKGRFTISRDNAKNTVYLQMHSLIPEDTAVYYCAAYRTRGSAYPYDYWGQGTQVTVSS,high polyreactivity
16,QVQLVESGGGLVQAGGSLRLSCAASGRIFAGYAMGWYRQAPGKERELVASIRYSGGSTYADSVKGRFPISRDNAKNTVYLQMNSLKAEDTAVYYCAADIRQFYVGWGSTLWYGHDYWGQGTQVTVSS,low polyreactivity
17,QVQLVESGGGLVQAGGSLRLSCAASGRIFAGYVMGWYRQAPGKERELVAAISWRGGRTYYADSVKGRFTISRDNAKNTVYLQMNSLKPEDTAVYYCNAPYAVGYPADDYWGQGTQVTVSS,high polyreactivity
18,QVQLVESGGGLVQAGGSLRLSCAASGRIFAGYVMGWYRQAPGKERELVAAITSGGGTDYADSVKGRFTISRDNAKNTVYLQMNSQKPEDTAVYYCAADPYYSWFGWDYEYWGQGTQVTVSS,high polyreactivity
19,QVQLVESGGGLVQAGGSLRLSCAASGRIFAHNAMGWYRQAPGKERELVAAINWSGGSTYYADSVTWRFTISRDNAKNTVYLQMNSLKPEDTAVYYCNNRYIHRSRAGYDYWGQGTQVTVSS,low polyreactivity
20,QVQLVESGGGLVQAGGSLRLSCAASGRIFAHYAMGWYRQAPGKERELVAAISSGGSTYYADSVKGRFTISRDNEKNTVYLQINSLKPEDTAVYYCAADYLYPPYYEFYYWGQGTQVTVSS,low polyreactivity
21,QVQLVESGGGLVQAGGSLRLSCAASGRIFAHYAMGWYRQAPGKERELVADIRQSGGRTYYADSVKGRFTISRDNAKNTVYLKMNSLKPEDTAVYFCATDYGSWGDYSGKYDYWGQGTQVTVSS,low polyreactivity
